Target: T1, CAV1–mCherry (caveolin-1 fused to mCherry), Q03135
T1 chain: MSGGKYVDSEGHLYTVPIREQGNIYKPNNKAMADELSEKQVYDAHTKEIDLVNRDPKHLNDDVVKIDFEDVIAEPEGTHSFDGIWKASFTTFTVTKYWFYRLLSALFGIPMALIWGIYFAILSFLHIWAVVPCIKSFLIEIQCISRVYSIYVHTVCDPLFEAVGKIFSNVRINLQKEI
Test: FRET or BRET
Conditions: remark: other sources report otherwise

FRET efficiency: 48%
B1: CAV1–mCherry (caveolin-1 fused to mCherry), Q03135 1-178 (natural protein)
chain: T1 chain

Reference: paper PMC3364743
